Data as given in PMC7327485 (The EMBO Journal, 2020).

Molecular target: the molecule itself
Assay: absorbance at 350 nm

B1: farnesylated hGBP1 R584‐586A (hGBP1F ^R584‐586A) (natural protein)
chain: MASEIHMTGPMCLIENTNGRLMANPEALKILSAITQPMVVVAIVGLYRTGKSYLMNKLAGKKKGFSLGSTVQSHTKGIWMWCVPHPKKPGHILVLLDTEGLGDVEKGDNQNDSWIFALAVLLSSTFVYNSIGTINQQAMDQLYYVTELTHRIRSKSSPDENENEVEDSADFVSFFPDFVWTLRDFSLDLEADGQPLTPDEYLTYSLKLKKGTSQKDETFNLPRLCIRKFFPKKKCFVFDRPVHRRKLAQLEKLQDEELDPEFVQQVADFCSYIFSNSKTKTLSGGIQVNGPRLESLVLTYVNAISSGDLPCMENAVLALAQIENSAAVQKAIAHYEQQMGQKVQLPTETLQELLDLHRDSEREAIEVFIRSSFKDVDHLFQKELAAQLEKKRDDFCKQNQEASSDRCSALLQVIFSPLEEEVKAGIYSKPGGYRLFVQKLQDLKKKYYEEPRKGIQAEEILQTYLKSKESMTDAILQTDQTLTEKEKEIEVERVKAESAQASAKMLQEMQRKNEQMMEQKERSYQEHLKQLTEKMENDRVQLLKEQERTLALKLQEQEQLLKEGFQKESRIMKNEIQDLQTKMAAAKACTIS
modifications: C-terminal farnesyl moiety (added in vitro with farnesyltransferase and farnesyl pyrophosphate)
- binding result: binds
